{
  "source": "patent EP2100620A1",
  "key": {"[1]": {"target": "HLA receptor A11 (HLA-A*1101), purified from transfected human cells (human)", "test": "competitive binding assay: unlabeled test peptide against 5 nM 125I-labeled standard peptide on purified HLA with 1 uM b2m, size exclusion HPLC, 68 h incubation"}, "[2]": {"target": "HLA receptor A1 (HLA-A*0101), purified from transfected human cells (human)", "test": "competitive binding assay: unlabeled test peptide against 5 nM 125I-labeled standard peptide on purified HLA with 1 uM b2m, size exclusion HPLC, 51 h incubation", "conditions": "remark: other sources report otherwise"}},
  "data": [
    {"binder": "HTMLCMCCK (modifications not checked)", "note": "[… (SEQ ID NO:122), HPV strain 18 E7 59-67]", "values": [
      {"measurement": "IC50", "setting": "[1]", "result": 67, "unit": "nM"}
    ]},
    {"binder": "ISEYRHYCY (modifications not checked)", "note": "[… (SEQ ID NO:70), HPV 16 E6 peptide]", "values": [
      {"measurement": "IC50", "setting": "[2]", "result": 49, "unit": "nM"}
    ]}
  ]
}
